Sequences and labels used below:
T1: amphyphisin SH3 (AMPH_HUMAN), P49418
T1 chain: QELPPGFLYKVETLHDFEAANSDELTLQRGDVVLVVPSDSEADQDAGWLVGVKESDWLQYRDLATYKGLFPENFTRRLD

B1: Q8WUS6 527-541 (peptide)
chain: MAGLPFRPPWGSLS
B2: O94947 263-276 (peptide)
chain: MLLSPRRPTVEKRA
B3: P08700 68-81 (peptide)
chain: MENNLRRPNLEAFN
B4: Q13423 581-594 (peptide)
chain: MLDMFKRPTDPPEY
B5: O75833 1-14 (peptide)
chain: MLLRPRRPPPLAPP
B6: Q96HR8 430-444 (peptide)
chain: MHNFPLRPPPPPPP
B7: Q14934 712-726 (peptide)
chain: MDFSPPRPPYPSYP
B8: P10747 192-205 (peptide)
chain: MNMTPRRPGPTRKH
B9: Q9UPS6 353-366 (peptide)
chain: MKRKPGRPRRSPPS
B10: Q99654 1-14 (peptide)
chain: MSSAPRRPAKGADS
B11: Q9H455 29-42 (peptide)
chain: LYRGLSRPIRRTTQ
B12: P20849 777-790 (peptide)
chain: MAASLKRPDSGATG
B13: O94901 782-795 (peptide)
chain: MFQALKRPDDTAFQ
B14: Q96DH7 35-48 (peptide)
chain: MQFSIRRPKLPSSE
B15: O00445 360-373 (peptide)
chain: MLANPRRPIAQWHS
B16: Q92876 108-121 (peptide)
chain: MLLRLARPAKLSEL
B17: Q99743 799-812 (peptide)
chain: AQPQPLRPPRRVSS
B18: Q02246 907-921 (peptide)
chain: MKPPPRRPPGNISW
B19: Q9Y4E6 583-597 (peptide)
chain: MKKGPTRPPRPSTP
B20: Q9Y2K2 611-624 (peptide)
chain: AQQLLKRPRGPSPL
B21: Q9Y6E0 364-377 (peptide)
chain: MKDIPKRPFSQSLS
B22: Q14209 197-210 (peptide)
chain: MFEDPTRPGKQQQL
B23: P18146 321-334 (peptide)
chain: MRKYPNRPSKTPPH
B24: P25705 324-337 (peptide)
chain: MSLLLRRPPGREAY
B25: P21579 394-407 (peptide)
chain: MLANPRRPIAQWHT
B26: Q9P0N2 51-64 (peptide)
chain: MDGFLSRPSRPLLQ
B27: Q13808 54-67 (peptide)
chain: MLAMPRRPDPVFLN
B28: Q96M26 524-538 (peptide)
chain: MEHSPQRPPRTEPT
B29: O15399 995-1009 (peptide)
chain: AAQPPQKPPASYFA
B30: Q13573 443-456 (peptide)
chain: MAQSIYRPSKNLDK
B31: Q96DN1 10-23 (peptide)
chain: LYWLLRRPSGVVLS
B32: Q9NW15 466-479 (peptide)
chain: MSRVFKRPFSEPSA
B33: Q08050 1-14 (peptide)
chain: MKTSPRRPLILKRR
B34: Q9GZZ2 864-877 (peptide)
chain: MKVHIKRPEMTSSS
B35: Q96GZ7 12-25 (peptide)
chain: ARAALRRPLSGQAL
B36: Q9NPP7 87-101 (peptide)
chain: MLLLPPRPPHPRSS
B37: O95600 103-116 (peptide)
chain: MLQAPIRPPKPQSS
B38: Q15428 237-251 (peptide)
chain: MNGLPPRPPLPESL

The values below come from article PMC314469, “Protein Interaction Networks by Proteome Peptide Scanning” (PLoS Biology, 2004).

One assay concerns the target T1, amphyphisin SH3 (AMPH_HUMAN), P49418. Description: SPOT array.
In turn, B1 displayed a normalised SPOT signal, Boehringer light units (BLU); mean over the file's lines of this peptide of 73.

With B2, the normalised SPOT signal, Boehringer light units (BLU); mean over the file's lines of this peptide is 344.

On to B3, for which the normalised SPOT signal, Boehringer light units (BLU); mean over the file's lines of this peptide was 27.1.

B4: the normalised SPOT signal, Boehringer light units (BLU); mean over the file's lines of this peptide turned out to be 34.5.

Turning to B5, the normalised SPOT signal, Boehringer light units (BLU); mean over the file's lines of this peptide came out at 2650.

In the case of B6, the normalised SPOT signal, Boehringer light units (BLU); mean over the file's lines of this peptide amounted to 68.7.

B7: the normalised SPOT signal, Boehringer light units (BLU); mean over the file's lines of this peptide amounted to 18.

Regarding B8, the normalised SPOT signal, Boehringer light units (BLU); mean over the file's lines of this peptide came to 76.1.

B9 registered a normalised SPOT signal, Boehringer light units (BLU); mean over the file's lines of this peptide of 138.

Turning to B10, the normalised SPOT signal, Boehringer light units (BLU); mean over the file's lines of this peptide worked out at 178.

B11: the normalised SPOT signal, Boehringer light units (BLU); mean over the file's lines of this peptide is 789.

Molecule B12 showed a normalised SPOT signal, Boehringer light units (BLU); mean over the file's lines of this peptide of 27.1.

B13: the normalised SPOT signal, Boehringer light units (BLU); mean over the file's lines of this peptide was 38.2.

Take B14: the normalised SPOT signal, Boehringer light units (BLU); mean over the file's lines of this peptide is 118.

For the molecule B15, the normalised SPOT signal, Boehringer light units (BLU); mean over the file's lines of this peptide is 33.7.

With B16, the normalised SPOT signal, Boehringer light units (BLU); mean over the file's lines of this peptide came out at 346.

Take B17: the normalised SPOT signal, Boehringer light units (BLU); mean over the file's lines of this peptide came out at 25300.

As for B18, the normalised SPOT signal, Boehringer light units (BLU); mean over the file's lines of this peptide is 1010.

B19 yielded a normalised SPOT signal, Boehringer light units (BLU); mean over the file's lines of this peptide of 10700.

B20 gave a normalised SPOT signal, Boehringer light units (BLU); mean over the file's lines of this peptide of 55.3.

On to B21, for which the normalised SPOT signal, Boehringer light units (BLU); mean over the file's lines of this peptide worked out at 99.5.

As to B22, the normalised SPOT signal, Boehringer light units (BLU); mean over the file's lines of this peptide turned out to be 18.6.

B23 came in with a normalised SPOT signal, Boehringer light units (BLU); mean over the file's lines of this peptide of 222.

Regarding B24, the normalised SPOT signal, Boehringer light units (BLU); mean over the file's lines of this peptide stood at 15.9.

Molecule B25 gave a normalised SPOT signal, Boehringer light units (BLU); mean over the file's lines of this peptide of 108.

Turning to B26, the normalised SPOT signal, Boehringer light units (BLU); mean over the file's lines of this peptide came to 295.

Regarding B27, the normalised SPOT signal, Boehringer light units (BLU); mean over the file's lines of this peptide is 57.7.

B28 returned a normalised SPOT signal, Boehringer light units (BLU); mean over the file's lines of this peptide of 14500.

Take B29: the normalised SPOT signal, Boehringer light units (BLU); mean over the file's lines of this peptide came out at 45.4.

For the molecule B30, the normalised SPOT signal, Boehringer light units (BLU); mean over the file's lines of this peptide is 153.

B31 yielded a normalised SPOT signal, Boehringer light units (BLU); mean over the file's lines of this peptide of 180.

On to B32, for which the normalised SPOT signal, Boehringer light units (BLU); mean over the file's lines of this peptide stood at 88.8.

B33 registered a normalised SPOT signal, Boehringer light units (BLU); mean over the file's lines of this peptide of 150.

On to B34, for which the normalised SPOT signal, Boehringer light units (BLU); mean over the file's lines of this peptide was found to be 27.3.

B35 showed a normalised SPOT signal, Boehringer light units (BLU); mean over the file's lines of this peptide of 87.1.

In turn, B36 showed a normalised SPOT signal, Boehringer light units (BLU); mean over the file's lines of this peptide of 3000.

The molecule B37 displayed a normalised SPOT signal, Boehringer light units (BLU); mean over the file's lines of this peptide of 1050.

The molecule B38 yielded a normalised SPOT signal, Boehringer light units (BLU); mean over the file's lines of this peptide of 58.1.

Another assay deals with endophilin SH3 (SH3G2_HUMAN), Q99962. The assay is described as follows: SPOT array.
Molecule B1 had a normalised SPOT signal, Boehringer light units (BLU); mean over the file's lines of this peptide of 4340.

Consider B2, for which the normalised SPOT signal, Boehringer light units (BLU); mean over the file's lines of this peptide was determined as 8300.

In turn, B3 had a normalised SPOT signal, Boehringer light units (BLU); mean over the file's lines of this peptide of 14.8.

Molecule B4 displayed a normalised SPOT signal, Boehringer light units (BLU); mean over the file's lines of this peptide of 56.5.

B5 returned a normalised SPOT signal, Boehringer light units (BLU); mean over the file's lines of this peptide of 5190.

B6 gave a normalised SPOT signal, Boehringer light units (BLU); mean over the file's lines of this peptide of 213.

As for B7, the normalised SPOT signal, Boehringer light units (BLU); mean over the file's lines of this peptide was 978.

As for B8, the normalised SPOT signal, Boehringer light units (BLU); mean over the file's lines of this peptide came to 2530.

The molecule B9 gave a normalised SPOT signal, Boehringer light units (BLU); mean over the file's lines of this peptide of 989.

In turn, B10 gave a normalised SPOT signal, Boehringer light units (BLU); mean over the file's lines of this peptide of 222.

The molecule B11 yielded a normalised SPOT signal, Boehringer light units (BLU); mean over the file's lines of this peptide of 234.

In the case of B12, the normalised SPOT signal, Boehringer light units (BLU); mean over the file's lines of this peptide was 34.5.

Molecule B13 came in with a normalised SPOT signal, Boehringer light units (BLU); mean over the file's lines of this peptide of 54.5.

For the molecule B14, the normalised SPOT signal, Boehringer light units (BLU); mean over the file's lines of this peptide was determined as 532.

B15 registered a normalised SPOT signal, Boehringer light units (BLU); mean over the file's lines of this peptide of 551.

In turn, B16 returned a normalised SPOT signal, Boehringer light units (BLU); mean over the file's lines of this peptide of 342.

As for B17, the normalised SPOT signal, Boehringer light units (BLU); mean over the file's lines of this peptide stood at 1160.

B18 gave a normalised SPOT signal, Boehringer light units (BLU); mean over the file's lines of this peptide of 1910.

In turn, B19 registered a normalised SPOT signal, Boehringer light units (BLU); mean over the file's lines of this peptide of 17300.

In the case of B20, the normalised SPOT signal, Boehringer light units (BLU); mean over the file's lines of this peptide was 75.7.

B21 yielded a normalised SPOT signal, Boehringer light units (BLU); mean over the file's lines of this peptide of 2820.

As for B22, the normalised SPOT signal, Boehringer light units (BLU); mean over the file's lines of this peptide was found to be 120.

B23 yielded a normalised SPOT signal, Boehringer light units (BLU); mean over the file's lines of this peptide of 1570.

On to B24, for which the normalised SPOT signal, Boehringer light units (BLU); mean over the file's lines of this peptide was 63.4.

As to B25, the normalised SPOT signal, Boehringer light units (BLU); mean over the file's lines of this peptide is 122.

As for B26, the normalised SPOT signal, Boehringer light units (BLU); mean over the file's lines of this peptide was determined as 236.

Consider B27, for which the normalised SPOT signal, Boehringer light units (BLU); mean over the file's lines of this peptide came out at 214.

The molecule B28 yielded a normalised SPOT signal, Boehringer light units (BLU); mean over the file's lines of this peptide of 1100.

The molecule B29 registered a normalised SPOT signal, Boehringer light units (BLU); mean over the file's lines of this peptide of 125.

The molecule B30 displayed a normalised SPOT signal, Boehringer light units (BLU); mean over the file's lines of this peptide of 185.

For the molecule B31, the normalised SPOT signal, Boehringer light units (BLU); mean over the file's lines of this peptide came out at 158.

The molecule B32 came in with a normalised SPOT signal, Boehringer light units (BLU); mean over the file's lines of this peptide of 627.

B33 gave a normalised SPOT signal, Boehringer light units (BLU); mean over the file's lines of this peptide of 2850.

The molecule B34 came in with a normalised SPOT signal, Boehringer light units (BLU); mean over the file's lines of this peptide of 163.

With B35, the normalised SPOT signal, Boehringer light units (BLU); mean over the file's lines of this peptide came out at 85.3.

In turn, B36 came in with a normalised SPOT signal, Boehringer light units (BLU); mean over the file's lines of this peptide of 11500.

On to B37, for which the normalised SPOT signal, Boehringer light units (BLU); mean over the file's lines of this peptide worked out at 2740.

In turn, B38 had a normalised SPOT signal, Boehringer light units (BLU); mean over the file's lines of this peptide of 9000.
